Test results from article PMC10786891, “Massively parallel profiling of RNA-targeting CRISPR-Cas13d”.

T1: EsCas13d, nuclease-dead (Eubacterium siraeum, UniProt B0MS50, R295A;H300A;R849A;H854A)
T1 sequence: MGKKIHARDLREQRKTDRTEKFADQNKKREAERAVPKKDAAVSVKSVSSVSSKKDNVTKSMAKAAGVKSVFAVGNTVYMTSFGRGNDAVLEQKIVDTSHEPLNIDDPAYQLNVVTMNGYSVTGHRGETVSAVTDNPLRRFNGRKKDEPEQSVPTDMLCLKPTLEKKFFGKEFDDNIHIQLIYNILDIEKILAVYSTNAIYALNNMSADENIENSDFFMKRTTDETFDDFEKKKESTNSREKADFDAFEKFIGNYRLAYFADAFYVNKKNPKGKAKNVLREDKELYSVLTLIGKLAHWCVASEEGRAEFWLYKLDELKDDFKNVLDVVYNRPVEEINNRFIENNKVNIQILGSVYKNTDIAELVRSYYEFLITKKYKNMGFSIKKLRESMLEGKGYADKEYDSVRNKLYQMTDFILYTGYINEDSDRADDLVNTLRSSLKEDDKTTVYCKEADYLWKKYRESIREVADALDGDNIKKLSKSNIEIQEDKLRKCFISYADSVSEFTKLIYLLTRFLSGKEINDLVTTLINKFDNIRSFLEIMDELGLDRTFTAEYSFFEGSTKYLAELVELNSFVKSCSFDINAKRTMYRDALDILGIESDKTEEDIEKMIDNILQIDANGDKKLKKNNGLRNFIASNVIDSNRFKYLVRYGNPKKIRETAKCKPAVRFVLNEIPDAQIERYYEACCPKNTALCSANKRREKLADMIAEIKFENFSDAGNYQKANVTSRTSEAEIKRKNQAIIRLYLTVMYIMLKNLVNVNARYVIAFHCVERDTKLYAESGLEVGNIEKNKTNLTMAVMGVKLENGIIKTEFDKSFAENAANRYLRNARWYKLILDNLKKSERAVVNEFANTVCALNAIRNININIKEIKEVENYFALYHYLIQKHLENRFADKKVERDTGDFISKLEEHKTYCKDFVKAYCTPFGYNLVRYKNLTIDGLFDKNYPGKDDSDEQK

B1: target 1 C7A,A18C (mixed)
RNA 1: CACCCGUGCAAAAAUGCAGGGGUCUAAAACUGAGCGGAUAACCUCUCUAUGG
RNA 2: GGGAAUGGAUCCACAUCUACGAAUUCGUACCAUCGAGAGGUUAUACGCUCACCGAGAUCGGAAGAGCACACGU
B2: target 1 insU 3' of 15,insA 3' of 8 (mixed)
RNA 1: CACCCGUGCAAAAAUGCAGGGGUCUAAAACUGAGCGGAUAACCUCUCUAUGG
RNA 2: GGGAAUGGAUCCACAUCUACGAAUUCGUACCAUAGAGUAGGUUAUACCGCUCACCGAGAUCGGAAGAGCACACGU
B3: target 2 MT 5'PFS UUG 3'PFS UAC (mixed)
RNA 1: CACCCGUGCAAAAUUGCAGGGGUCUAAAACCUUCUCCAAAUUGUUUCAUCCU
RNA 2: GGGAAUGGAUCCACAUCUACGAAUUCUUGAGGAUGAAACAAUUUGGAGAAGUACAGAUCGGAAGAGCACACGU
B4: target 2 MT 5'PFS ACA 3'PFS CUU (mixed)
RNA 1: CACCCGUGCAAAAUUGCAGGGGUCUAAAACCUUCUCCAAAUUGUUUCAUCCU
RNA 2: GGGAAUGGAUCCACAUCUACGAAUUCACAAGGAUGAAACAAUUUGGAGAAGCUUAGAUCGGAAGAGCACACGU
B5: target 2 MT 5'PFS UAU 3'PFS ACG (mixed)
RNA 1: CACCCGUGCAAAAUUGCAGGGGUCUAAAACCUUCUCCAAAUUGUUUCAUCCU
RNA 2: GGGAAUGGAUCCACAUCUACGAAUUCUAUAGGAUGAAACAAUUUGGAGAAGACGAGAUCGGAAGAGCACACGU
B6: target 2 MT 5'PFS AAG 3'PFS CGA (mixed)
RNA 1: CACCCGUGCAAAAUUGCAGGGGUCUAAAACCUUCUCCAAAUUGUUUCAUCCU
RNA 2: GGGAAUGGAUCCACAUCUACGAAUUCAAGAGGAUGAAACAAUUUGGAGAAGCGAAGAUCGGAAGAGCACACGU
B7: target 2 MT 5'PFS GGG 3'PFS AUG (mixed)
RNA 1: CACCCGUGCAAAAUUGCAGGGGUCUAAAACCUUCUCCAAAUUGUUUCAUCCU
RNA 2: GGGAAUGGAUCCACAUCUACGAAUUCGGGAGGAUGAAACAAUUUGGAGAAGAUGAGAUCGGAAGAGCACACGU
B8: target 2 MT 5'PFS GAA 3'PFS UAU (mixed)
RNA 1: CACCCGUGCAAAAUUGCAGGGGUCUAAAACCUUCUCCAAAUUGUUUCAUCCU
RNA 2: GGGAAUGGAUCCACAUCUACGAAUUCGAAAGGAUGAAACAAUUUGGAGAAGUAUAGAUCGGAAGAGCACACGU
B9: target 2 MT 5'PFS UUG 3'PFS UAA (mixed)
RNA 1: CACCCGUGCAAAAUUGCAGGGGUCUAAAACCUUCUCCAAAUUGUUUCAUCCU
RNA 2: GGGAAUGGAUCCACAUCUACGAAUUCUUGAGGAUGAAACAAUUUGGAGAAGUAAAGAUCGGAAGAGCACACGU
B10: target 2 MT 5'PFS GGG 3'PFS AUC (mixed)
RNA 1: CACCCGUGCAAAAUUGCAGGGGUCUAAAACCUUCUCCAAAUUGUUUCAUCCU
RNA 2: GGGAAUGGAUCCACAUCUACGAAUUCGGGAGGAUGAAACAAUUUGGAGAAGAUCAGAUCGGAAGAGCACACGU
B11: target 2 MT 5'PFS ACC 3'PFS ACA (mixed)
RNA 1: CACCCGUGCAAAAUUGCAGGGGUCUAAAACCUUCUCCAAAUUGUUUCAUCCU
RNA 2: GGGAAUGGAUCCACAUCUACGAAUUCACCAGGAUGAAACAAUUUGGAGAAGACAAGAUCGGAAGAGCACACGU
B12: target 2 MT 5'PFS GCC 3'PFS ACU (mixed)
RNA 1: CACCCGUGCAAAAUUGCAGGGGUCUAAAACCUUCUCCAAAUUGUUUCAUCCU
RNA 2: GGGAAUGGAUCCACAUCUACGAAUUCGCCAGGAUGAAACAAUUUGGAGAAGACUAGAUCGGAAGAGCACACGU
B13: target 2 MT 5'PFS GGG 3'PFS AUA (mixed)
RNA 1: CACCCGUGCAAAAUUGCAGGGGUCUAAAACCUUCUCCAAAUUGUUUCAUCCU
RNA 2: GGGAAUGGAUCCACAUCUACGAAUUCGGGAGGAUGAAACAAUUUGGAGAAGAUAAGAUCGGAAGAGCACACGU
B14: target 2 MT 5'PFS AAG 3'PFS CGC (mixed)
RNA 1: CACCCGUGCAAAAUUGCAGGGGUCUAAAACCUUCUCCAAAUUGUUUCAUCCU
RNA 2: GGGAAUGGAUCCACAUCUACGAAUUCAAGAGGAUGAAACAAUUUGGAGAAGCGCAGAUCGGAAGAGCACACGU
B15: target 2 MT 5'PFS UAU 3'PFS ACU (mixed)
RNA 1: CACCCGUGCAAAAUUGCAGGGGUCUAAAACCUUCUCCAAAUUGUUUCAUCCU
RNA 2: GGGAAUGGAUCCACAUCUACGAAUUCUAUAGGAUGAAACAAUUUGGAGAAGACUAGAUCGGAAGAGCACACGU
B16: target 2 MT 5'PFS AAG 3'PFS AGA (mixed)
RNA 1: CACCCGUGCAAAAUUGCAGGGGUCUAAAACCUUCUCCAAAUUGUUUCAUCCU
RNA 2: GGGAAUGGAUCCACAUCUACGAAUUCAAGAGGAUGAAACAAUUUGGAGAAGAGAAGAUCGGAAGAGCACACGU
B17: target 2 MT 5'PFS GCU 3'PFS CGC (mixed)
RNA 1: CACCCGUGCAAAAUUGCAGGGGUCUAAAACCUUCUCCAAAUUGUUUCAUCCU
RNA 2: GGGAAUGGAUCCACAUCUACGAAUUCGCUAGGAUGAAACAAUUUGGAGAAGCGCAGAUCGGAAGAGCACACGU
B18: target 2 MT 5'PFS AUA 3'PFS CAU (mixed)
RNA 1: CACCCGUGCAAAAUUGCAGGGGUCUAAAACCUUCUCCAAAUUGUUUCAUCCU
RNA 2: GGGAAUGGAUCCACAUCUACGAAUUCAUAAGGAUGAAACAAUUUGGAGAAGCAUAGAUCGGAAGAGCACACGU
B19: target 2 MT 5'PFS GGG 3'PFS AUU (mixed)
RNA 1: CACCCGUGCAAAAUUGCAGGGGUCUAAAACCUUCUCCAAAUUGUUUCAUCCU
RNA 2: GGGAAUGGAUCCACAUCUACGAAUUCGGGAGGAUGAAACAAUUUGGAGAAGAUUAGAUCGGAAGAGCACACGU
B20: target 2 MT 5'PFS CAU 3'PFS AGG (mixed)
RNA 1: CACCCGUGCAAAAUUGCAGGGGUCUAAAACCUUCUCCAAAUUGUUUCAUCCU
RNA 2: GGGAAUGGAUCCACAUCUACGAAUUCCAUAGGAUGAAACAAUUUGGAGAAGAGGAGAUCGGAAGAGCACACGU
B21: target 2 MT 5'PFS AUG 3'PFS UGU (mixed)
RNA 1: CACCCGUGCAAAAUUGCAGGGGUCUAAAACCUUCUCCAAAUUGUUUCAUCCU
RNA 2: GGGAAUGGAUCCACAUCUACGAAUUCAUGAGGAUGAAACAAUUUGGAGAAGUGUAGAUCGGAAGAGCACACGU
B22: target 2 MT 5'PFS AAG 3'PFS AGC (mixed)
RNA 1: CACCCGUGCAAAAUUGCAGGGGUCUAAAACCUUCUCCAAAUUGUUUCAUCCU
RNA 2: GGGAAUGGAUCCACAUCUACGAAUUCAAGAGGAUGAAACAAUUUGGAGAAGAGCAGAUCGGAAGAGCACACGU
B23: target 2 MT 5'PFS AAG 3'PFS CGG (mixed)
RNA 1: CACCCGUGCAAAAUUGCAGGGGUCUAAAACCUUCUCCAAAUUGUUUCAUCCU
RNA 2: GGGAAUGGAUCCACAUCUACGAAUUCAAGAGGAUGAAACAAUUUGGAGAAGCGGAGAUCGGAAGAGCACACGU
B24: target 2 MT 5'PFS UGG 3'PFS UAC (mixed)
RNA 1: CACCCGUGCAAAAUUGCAGGGGUCUAAAACCUUCUCCAAAUUGUUUCAUCCU
RNA 2: GGGAAUGGAUCCACAUCUACGAAUUCUGGAGGAUGAAACAAUUUGGAGAAGUACAGAUCGGAAGAGCACACGU
B25: target 2 MT 5'PFS CAG 3'PFS UCC (mixed)
RNA 1: CACCCGUGCAAAAUUGCAGGGGUCUAAAACCUUCUCCAAAUUGUUUCAUCCU
RNA 2: GGGAAUGGAUCCACAUCUACGAAUUCCAGAGGAUGAAACAAUUUGGAGAAGUCCAGAUCGGAAGAGCACACGU
B26: target 2 MT 5'PFS AAG 3'PFS AGG (mixed)
RNA 1: CACCCGUGCAAAAUUGCAGGGGUCUAAAACCUUCUCCAAAUUGUUUCAUCCU
RNA 2: GGGAAUGGAUCCACAUCUACGAAUUCAAGAGGAUGAAACAAUUUGGAGAAGAGGAGAUCGGAAGAGCACACGU
B27: target 2 MT 5'PFS ACA 3'PFS CUC (mixed)
RNA 1: CACCCGUGCAAAAUUGCAGGGGUCUAAAACCUUCUCCAAAUUGUUUCAUCCU
RNA 2: GGGAAUGGAUCCACAUCUACGAAUUCACAAGGAUGAAACAAUUUGGAGAAGCUCAGAUCGGAAGAGCACACGU
B28: target 2 MT 5'PFS UUG 3'PFS UAG (mixed)
RNA 1: CACCCGUGCAAAAUUGCAGGGGUCUAAAACCUUCUCCAAAUUGUUUCAUCCU
RNA 2: GGGAAUGGAUCCACAUCUACGAAUUCUUGAGGAUGAAACAAUUUGGAGAAGUAGAGAUCGGAAGAGCACACGU

The binders below were run against T1, EsCas13d, nuclease-dead (assay: crRNA (strand 1, pre-loaded); Mg2+; 40 mM Tris-HCl pH 7.5, 150 mM NaCl, 6 mM MgCl2, 1 mM DTT, 0.1% Tween-20, 0.2 mg/ml BSA; 25 C; 10 min per concentration, then washed). Conditions: tags: His6-TwinStrep-SUMO cleaved; N-terminal SNAP kept (SNAP-Surface 488); label: 3' end held by stalled T7 RNA polymerase.

| Binder | Kd [nM] |
| --- | --- |
| B1 | 70 ± 6 |
| B2 | 16.8 ± 2 |
| B3 | 14.3 ± 1.2 |
| B4 | 12 ± 4 |
| B5 | 58 ± 6 |
| B6 | 4.5 ± 0.5 |
| B7 | 9.2 ± 0.6 |
| B8 | 7.8 ± 1 |
| B9 | 12.8 ± 2 |
| B10 | 8.5 ± 0.8 |
| B11 | 8 ± 4 |
| B12 | 12.9 ± 1.9 |
| B13 | 7.1 ± 0.5 |
| B14 | 3.34 ± 0.31 |
| B15 | 76 ± 25 |
| B16 | 2.5 ± 0.28 |
| B17 | 12.1 ± 1.3 |
| B18 | 4.6 ± 0.8 |
| B19 | 9 ± 0.8 |
| B20 | 2.8 ± 0.4 |
| B21 | 21 ± 2.6 |
| B22 | 3.7 ± 0.4 |
| B23 | 3.4 ± 0.5 |
| B24 | 8.6 ± 0.9 |
| B25 | 29 ± 8 |
| B26 | 5.7 ± 1 |
| B27 | 6.7 ± 1 |
| B28 | 10.9 ± 1.2 |
